Reference: the nanobody polyreactivity screen of Harvey et al. (2022)

Assay: yeast display, Sf9 membrane polyspecificity reagent, FACS + sequencing; frameworks hold sequencing errors
Method in brief: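 Galactose induction of a Saccharomyces cerevisiae BJ5465 synthetic nanobody display library ran 36–48 hours. The cells were then stained for 1 hour at 4 °C with 10% biotinylated, detergent-solubilized Sf9 membrane reagent, pulled down on streptavidin microbeads and FACS-sorted into low and high (top ~1%) gates on expression and reagent-binding fluorescence. Labels for polyreactivity follow the gate of origin.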

Row | Sequence | polyreactivity (PSR sort gate)
1 | QVQLVESGGGLVQAGGSLRLTCAASGSTFTYNGMGWYRQAPGKERELVAAITKRGGSTYYADSVKGRFTISRDNAKNTVYLQMNSLKPEETAVYYCAKPAASGFRWDSGYWGQGTQVTLSS | high polyreactivity
2 | QVQLVESGGGLVQAGGSLRLTCAASGSTFTYYAMGWYRQAPGKERDLVAAITSSDGSTYYADSVKGRFTISRDNAKNTVYLQMNSLKPEDTAVYYCAADNYVDFYDEYDYWGQGTQVTVSS | low polyreactivity
3 | QVQLVESGGGLVQAGGSLRLTCAASGSTFWDNTMGWYRQAPGKDRELVAGITGGGNTKYADSVKGRFTISRDNAKNTVYLQMNSLKPEDTAVYYCAAERLRGYRGVRGYYGYYYWGQGTQVTVSS | high polyreactivity
4 | QVQLVESGGGLVQAGGSLRLTCAASGSTFWSYGMGWYRPAPGKERELVAAITRGGSTYYADSVKGRFTISRDNAKNTVYLQMNSLIPEDTAVYYCAAGISVRWSPSYYYWGQGTQVTVSS | high polyreactivity
5 | QVQLVESGGGLVQAGGSLRLTCAASGSTIGGNPMVCYRHAPGKERELVAAITFSGGSTSYADSVKGRFTISRDNAKNTVYLQMNSLKPEDTAVYYCAASWVYPYDYWRQGTQVTVSS | low polyreactivity
6 | QVQLVESGGGLVQAGGSLRLTCAASGSTLNYYAMGWYRQAPGKERELVAAIRSGGNTNYADSVKGRFTISRDNAKNTVYLQMNSLKPEDTAVYYCAKDESYFYDRVPLDYWGQGTQVTVSS | low polyreactivity
7 | QVQLVESGGGLVQAGGSLRLTCAASGSTLSTYVMGWYRQAPGKERELVAAITRRGGITYYADSVKGRFTISRDNAKNTVYLQMNSLKPEDTAVYYCAATGVRSKRLASQWKLYYWGQGTQVTVSS | high polyreactivity
8 | QVQLVESGGGLVQAGGSLRLTCAASGSTLYWKAMGWYRQAPGKERELVASITSSGGSTYYADSVKGRFTISRDNAKNTVYLQMNSLKPEDTAVYDCATESWWRYSEYYYWGQGSQVTVSS | low polyreactivity
9 | QVQLVESGGGLVQAGGSLRLTCAASGSTSYPYAMGWYRQEPGKERELVATITSGGRTNYADSVKGRFTISRDNAKNTVYLQMHSLKPEDTAVYYCNARFYRWRSYGYDYWGQGTQVTVSS | high polyreactivity
10 | QVQLVESGGGLVQAGGSLRLTCAASGYIFNRNAMGWYRQAPGKERELVAAISGSGAVTYYADSVKGRFTISRDNAKNTVYFQMNSLKPEDTAVYYCAKKLYWREGRYDYWGQGTQVTVSS | high polyreactivity
11 | QVQLVESGGGLVQAGGSLRLTCAASGYTFGHYAMGWYRQAPGKERELVAVITSGGSTNYADSVKGRFTISRDNAKNTVYLQMNSLKPEDTAVYYCAADLYFYYVWIRDYWGQGTQVTVSS | low polyreactivity
12 | QVQLVESGGGLVQAGGSLRLTCAASGYTFGKYAMGWYREAPGKERELVATIRSGGSTNYADSLKGRFTISRDNAKNTVYLQMNSLKPEDTAVYYCNKRYRYEYGYDYWGQGTLVTVSS | high polyreactivity
13 | QVQLVESGGGLVQAGGSLRLTCAASGYTFVIYSMVWYRQAPGKVRELVAAITTIGGRTYYADSVKGRFTISRDNAKNTVYLQMNSLKPEDTAVYYCAADIRSNRLYDGGYWRQGTQVTVSS | low polyreactivity
14 | QVQLVESGGGLVQAGGSLRLTCAASGYTFYSYAMGWYRQAPGKERELVAAIRTGGGTNYADSVKGRFTISRDNAMNTVYLQMNSLKPEDTAVYYCAADSFDPAGHVDYWGQGTQVTVSS | low polyreactivity
15 | QVQLVESGGGLVQAGGSLRLTCAASRRIFSYYAMGDYIQATGKERELVADINWSGGSTYYADSVKGRFTISRDNAKNTFYLQMNSLKPEDTAVYYCAVDWTSAYGTYYYTPYDSWGQGTQVTVSS | low polyreactivity
16 | QVQLVESGGGLVQAGGSLRLTCADSGNILLFNAMGWYRQAPGKERELVATINQSGGRTYYADSVKGRFTISRDNAKNTVYLQMNSLKPEDTAVYYCNAERHPYYYWHTQRLDYWGQGTQVTVSS | low polyreactivity
17 | QVQLVESGGGLVQAGGSLRLTCADSGSIFYYYGMGWYRQAPGKERELVASITQSGVSTYYADSVKGRFTISRDNANNSVYLQMNSLKPEYTAVYYCAAGTVSGVDYWGQGTQVTVSS | high polyreactivity
